Test in all cases: cell-based or functional assay
Assay [1] addresses high-affinity IL-2R (containing the α/β/γc-subunits of the IL-2R) expressed on CTLL-2 cells (mouse) (UniProt P01590).
Assay [2] shares this target. This is another data set of the same source.
Assay [3] addresses T1, intermediate-affinity IL-2R (containing the β/γc-subunits of the IL-2R) expressed on HH cells (human, UniProt P14784 27-551; P31785 23-369).
T1 sequence (looked up) 1: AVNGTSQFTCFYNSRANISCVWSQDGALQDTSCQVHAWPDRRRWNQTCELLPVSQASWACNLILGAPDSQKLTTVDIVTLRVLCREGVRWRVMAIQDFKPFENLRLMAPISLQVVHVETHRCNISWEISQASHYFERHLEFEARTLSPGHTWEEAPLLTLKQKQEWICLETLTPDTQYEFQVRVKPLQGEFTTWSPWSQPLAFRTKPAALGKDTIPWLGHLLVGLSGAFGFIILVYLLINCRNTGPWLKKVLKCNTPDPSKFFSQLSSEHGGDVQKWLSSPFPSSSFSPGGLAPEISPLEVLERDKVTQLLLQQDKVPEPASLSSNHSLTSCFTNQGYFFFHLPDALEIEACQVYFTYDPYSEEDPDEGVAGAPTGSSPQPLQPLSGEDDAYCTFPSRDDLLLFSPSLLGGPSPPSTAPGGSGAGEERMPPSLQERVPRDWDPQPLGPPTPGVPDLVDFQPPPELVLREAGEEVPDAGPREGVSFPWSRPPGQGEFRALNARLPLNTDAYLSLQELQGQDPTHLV
T1 sequence (looked up) 2: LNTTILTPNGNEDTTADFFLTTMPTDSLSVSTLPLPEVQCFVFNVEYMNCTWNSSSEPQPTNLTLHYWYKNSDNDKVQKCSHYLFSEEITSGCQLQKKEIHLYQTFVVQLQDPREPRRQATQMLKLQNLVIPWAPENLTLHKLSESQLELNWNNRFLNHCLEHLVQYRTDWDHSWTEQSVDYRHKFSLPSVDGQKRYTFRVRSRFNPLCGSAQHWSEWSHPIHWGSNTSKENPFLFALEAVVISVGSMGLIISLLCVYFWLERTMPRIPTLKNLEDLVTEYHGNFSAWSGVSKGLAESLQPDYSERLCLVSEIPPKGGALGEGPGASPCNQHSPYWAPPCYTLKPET

In assay [4] the target is T1, intermediate-affinity IL-2R (containing …). This is another data set of the same source.
The target in assay [5] is T2, high-affinity IL-2R (containing the α/β/γc-subunits of the IL-2R) expressed on CTLL-2 cells (mouse, UniProt P01590 22-268; P16297 27-539; P34902 23-369).
T2 sequence (looked up) 1: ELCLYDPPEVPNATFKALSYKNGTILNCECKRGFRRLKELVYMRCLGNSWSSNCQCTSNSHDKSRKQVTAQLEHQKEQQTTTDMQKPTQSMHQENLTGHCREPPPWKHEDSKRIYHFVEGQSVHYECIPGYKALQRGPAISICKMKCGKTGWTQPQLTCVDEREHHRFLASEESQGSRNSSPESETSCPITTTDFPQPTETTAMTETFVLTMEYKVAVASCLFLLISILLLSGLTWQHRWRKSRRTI
T2 sequence (looked up) 2: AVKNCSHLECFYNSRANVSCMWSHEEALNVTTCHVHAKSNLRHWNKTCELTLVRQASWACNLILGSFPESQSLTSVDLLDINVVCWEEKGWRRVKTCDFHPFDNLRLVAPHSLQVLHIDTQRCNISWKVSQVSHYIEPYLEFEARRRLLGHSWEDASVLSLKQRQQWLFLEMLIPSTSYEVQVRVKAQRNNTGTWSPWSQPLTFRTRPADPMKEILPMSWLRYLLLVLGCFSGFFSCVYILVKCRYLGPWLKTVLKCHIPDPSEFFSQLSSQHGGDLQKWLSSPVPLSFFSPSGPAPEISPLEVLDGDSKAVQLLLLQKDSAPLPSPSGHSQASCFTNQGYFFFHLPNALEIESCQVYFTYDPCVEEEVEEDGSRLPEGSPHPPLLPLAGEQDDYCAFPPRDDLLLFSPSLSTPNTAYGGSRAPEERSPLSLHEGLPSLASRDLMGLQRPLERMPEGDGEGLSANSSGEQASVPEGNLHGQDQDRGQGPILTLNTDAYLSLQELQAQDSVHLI
T2 sequence (looked up) 3: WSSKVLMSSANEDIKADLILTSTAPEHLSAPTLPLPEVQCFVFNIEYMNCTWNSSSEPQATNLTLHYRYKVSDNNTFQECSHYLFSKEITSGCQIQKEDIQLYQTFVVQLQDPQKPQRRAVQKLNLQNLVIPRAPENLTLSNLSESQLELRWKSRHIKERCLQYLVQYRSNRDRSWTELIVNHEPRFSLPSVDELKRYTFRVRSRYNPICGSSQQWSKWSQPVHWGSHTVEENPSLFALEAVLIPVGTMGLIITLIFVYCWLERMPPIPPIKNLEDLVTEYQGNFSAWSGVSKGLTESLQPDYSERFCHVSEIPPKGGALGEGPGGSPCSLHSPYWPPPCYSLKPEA

In assay [6] the target is T1, intermediate-affinity IL-2R (containing …). This is another data set of the same source.
Assay [7] addresses T2, high-affinity IL-2R (containing the …). The source holds these as a separate data set.
The target of assay [8] is T1, intermediate-affinity IL-2R (containing …). The source holds these as a separate data set.
Assay [9] has the same target. This is another data set of the same source.
In assay [10] the target is T2, high-affinity IL-2R (containing the …). The source holds these as a separate data set.

Like-named read-outs stand apart in the source and are kept apart here.

In the case of “wild-type IL-2 (proleukin) (from UniProt P60568 21-153) (ligand)”, in assay [1], the EC50 (CTLL-2): pSTAT-5 induction in CTLL-2 cells (flow cytometry) amounted to 0.2 nM and the EC50 of pSTAT-5 induction in CTLL-2 cells (flow cytometry) turned out to be 0.17 nM. The molecule further had an EC50 of pSTAT-5 induction in CTLL-2 cells (flow cytometry) in assay [2] of 0.231 nM.

B1: IL-2 variant IL-2_#3 (F42V, Y45A, L72N, C125G) (ligand)
chain: APTSSSTKKTQLQLEHLLLDLQMILNGINNYKNPKLTRMLTVKFAMPKKATELKHLQCLEEELKPLEEVLNNAQSKNFHLRPRDLISNINVIVLELKGSETTFMCEYADETATIVEFLNRWITFGQSIISTLT
For the molecule B1, in assay [3], the “EC50 (HH/CTLL-2): EC50 on HH cells (intermediate-affinity IL-2R) divided by EC50 on CTLL-2 cells (high-affinity IL-2R)” value was determined as 0.22 ratio. Further, in assay [4], the “EC50 of pSTAT-5 induction in HH cells (flow cytometry)” value (“EC50 of pSTAT-5 induction in HH cells” for short) amounted to 9.6 nM. Moreover, in [5], the “EC50 of pSTAT-5 induction in CTLL-2 cells (flow cytometry)” value came out at 44.1 nM.

B2: IL-2 variant IL-2_#8 (F42V, Y45S, L72N, C125G) (ligand)
chain: APTSSSTKKTQLQLEHLLLDLQMILNGINNYKNPKLTRMLTVKFSMPKKATELKHLQCLEEELKPLEEVLNNAQSKNFHLRPRDLISNINVIVLELKGSETTFMCEYADETATIVEFLNRWITFGQSIISTLT
As to B2, the “EC50 (HH/CTLL-2): EC50 on HH cells (intermediate-affinity IL-2R) divided by EC50 on CTLL-2 cells (high-affinity IL-2R)” value in [3] was 0.75 ratio. Besides, the “EC50 of pSTAT-5 induction in HH cells” value in [4] came out at 90.2 nM. For the same molecule, the “EC50 of pSTAT-5 induction in CTLL-2 cells (flow cytometry)” value in [5] is 120 nM.

B3: IL-2 variant IL-2_#9 (F42H, Y45D, L72I, C125G) (ligand)
chain: APTSSSTKKTQLQLEHLLLDLQMILNGINNYKNPKLTRMLTHKFDMPKKATELKHLQCLEEELKPLEEVLNIAQSKNFHLRPRDLISNINVIVLELKGSETTFMCEYADETATIVEFLNRWITFGQSIISTLT
On to B3, for which the “EC50 (HH/CTLL-2): EC50 on HH cells (intermediate-affinity IL-2R) divided by EC50 on CTLL-2 cells (high-affinity IL-2R)” value in assay [3] is 1.79 ratio. Moreover, the “EC50 of pSTAT-5 induction in HH cells” value in assay [4] worked out at 17.9 nM. Further, in [5], the “EC50 of pSTAT-5 induction in CTLL-2 cells (flow cytometry)” value came out at 10 nM.

B4: IL-2 variant IL-2_#12 (F42C, Y45N, L72V) (ligand)
chain: APTSSSTKKTQLQLEHLLLDLQMILNGINNYKNPKLTRMLTCKFNMPKKATELKHLQCLEEELKPLEEVLNVAQSKNFHLRPRDLISNINVIVLELKGSETTFMCEYADETATIVEFLNRWITFCQSIISTLT
For B4, the “EC50 (HH/CTLL-2): EC50 on HH cells (intermediate-affinity IL-2R) divided by EC50 on CTLL-2 cells (high-affinity IL-2R)” value in [3] is 0.24 ratio. In addition, the “EC50 of pSTAT-5 induction in HH cells” value in assay [4] was found to be 0.556 nM. Further, in assay [5], the “EC50 of pSTAT-5 induction in CTLL-2 cells (flow cytometry)” value amounted to 2.32 nM.

B5: IL-2 variant IL-2_#28 (F42A, Y45D, L72D) (ligand)
chain: APTSSSTKKTQLQLEHLLLDLQMILNGINNYKNPKLTRMLTAKFDMPKKATELKHLQCLEEELKPLEEVLNDAQSKNFHLRPRDLISNINVIVLELKGSETTFMCEYADETATIVEFLNRWITFCQSIISTLT
B5: the “EC50 of pSTAT-5 induction in HH cells” value in assay [6] came out at 8.95 nM. Also, the “EC50 of pSTAT-5 induction in CTLL-2 cells (flow cytometry)” value in [7] turned out to be 9.56 nM. In addition, in assay [8], the “EC50 (HH/CTLL-2): EC50 on HH cells (intermediate-affinity IL-2R) divided by EC50 on CTLL-2 cells (high-affinity IL-2R)” value stood at 0.94 ratio.

B6: mutant IL-2, IL-2v (AAG), with F42A, Y45A, and L72G substitutions of IL-2 (F. Hoffmann-La Roche Ltd) (ligand)
chain: APTSSSTKKTQLQLEHLLLDLQMILNGINNYKNPKLTRMLTAKFAMPKKATELKHLQCLEEELKPLEEVLNGAQSKNFHLRPRDLISNINVIVLELKGSETTFMCEYADETATIVEFLNRWITFCQSIISTLT
Regarding B6, in assay [9], the “EC50 (HH): pSTAT-5 induction in HH cells (flow cytometry)” value was 2.01 nM and the “EC50 (HH/CTLL-2): EC50 on HH cells (intermediate-affinity IL-2R) divided by EC50 on CTLL-2 cells (high-affinity IL-2R)” value was found to be 0.037 ratio. The “EC50 (CTLL-2): pSTAT-5 induction in CTLL-2 cells (flow cytometry)” value in assay [10] was determined as 54.1 nM.

B7: IL-2 variant IL-2_#31 (F42A, Y45M, L72N) (ligand)
chain: APTSSSTKKTQLQLEHLLLDLQMILNGINNYKNPKLTRMLTAKFMMPKKATELKHLQCLEEELKPLEEVLNNAQSKNFHLRPRDLISNINVIVLELKGSETTFMCEYADETATIVEFLNRWITFCQSIISTLT
Consider B7, for which the “EC50 of pSTAT-5 induction in HH cells” value in [6] turned out to be 0.11 nM. Besides, the “EC50 of pSTAT-5 induction in CTLL-2 cells (flow cytometry)” value in assay [7] turned out to be 2.02 nM. In addition, in assay [8], the “EC50 (HH/CTLL-2): EC50 on HH cells (intermediate-affinity IL-2R) divided by EC50 on CTLL-2 cells (high-affinity IL-2R)” value is 0.05 ratio.
